The text below walks through data of US20260014245A1 (MAX DELBRUECK CENTRUM F R MOLEKULARE MEDIZIN IN DER …, published 2026).

The target in test [1] is T1, MERS-CoV RBD (wild type, amino acids G372-L588, AviTag, Twin Strep tag, 6xHis) (MERS-CoV). The test can be described thus: ELISA on coated RBD, antibody titrated, anti human IgG OD 405 nm.
In test [2] the target is T1, MERS-CoV RBD (wild type, amino acids …). As to the kind of experiment: human DPP4.
Test [3] shares this target. The test can be described thus: serum pull-down with RBD coated beads.
Test [4] shares this target. As to the kind of experiment: ELISA, anti Twin-Strep readout OD 405 nm (the Twin-Strep-tagged RBD is detected).

B1: LCA60 (antibody, V domains shown)
VH: EVQLLESGGGLVKPGGSLRLSCEASGLTFSNVWMSWVRQAPGKGLEWVGRIKRKSEGATTDYGAPVKGRFTLSRDDSKNTVYLQMNSLKIDDTAVYYCSTLTRGGDVWSSSYYFDYWGQGALVTVSS
VL: QSALTQPASVSGSPGQSITISCTGTSSDVGTYDLVSWYQQHPGKSPKLMIYADIKRPSGVSHRFSGSKSGNTASLTISGLQSADEADYYCCLYAGSSTSVIFGGGTKVT
As to B1, the “EC50 (read off the curve)” value in test [1] is around 0.03 µg/mL.

B2: recombinant human DPP4 with an N-terminal 8xHis-tag (hDPP4-N'His) (receptor)
chain: HHHHHHHHGGGSGGGSGGGSDSRKTYTLTDYLKNTYRLKLYSLRWISDHEYLYKQENNILVFNAEYGNSSVFLENSTFDEFGHSINDYSISPDGQFILLEYNYVKQWRHSYTASYDIYDLNKRQLITEERIPNNTQWVTWSPVGHKLAYVWNNDIYVKIEPNLPSYRITWTGKEDIIYNGITDWVYEEEVFSAYSALWWSPNGTFLAYAQFNDTEVPLIEYSFYSDESLQYPKTVRVPYPKAGAVNPTVKFFVVNTDSLSSVTNATSIQITAPASMLIGDHYLCDVTWATQERISLQWLRRIQNYSVMDICDYDESSGRWNCLVARQHIEMSTTGWVGRFRPSEPHFTLDGNSFYKIISNEEGYRHICYFQIDKKDCTFITKGTWEVIGIEALTSDYLYYISNEYKGMPGGRNLYKIQLSDYTKVTCLSCELNPERCQYYSVSFSKEAKYYQLRCSGPGLPLYTLHSSVNDKGLRVLEDNSALDKMLQNVQMPSKKLDFIILNETKFWYQMILPPHFDKSKKYPLLLDVYAGPCSQKADTVFRLNWATYLASTENIIVASFDGRGSGYQGDKIMHAINRRLGTFEVEDQIEAARQFSKMGFVDNKRIAIWGWSYGGYVTSMVLGSGSGVFKCGIAVAPVSRWEYYDSVYTERYMGLPTPEDNLDHYRNSTVMSRAENFKQVEYLLIHGTADDNVHFQQSAQISKALVDVGVDFQAMWYTDEDHGIASSTAHQHIYTHMSHFIKQCFSLP
notes: range 38-766
In test [2], B2 displayed a Kd of 7.8 nM.

B3: D12 (antibody, V domains shown)
VH: EVKLVESGGGLVKPGGSLKLSCAASGFTFSSYAMSWVRQTPEKRLEWVATISSGGTYTYYPDSVKGRFTISRDNAENTLYLQMSSLRSEDTAMYYCVRDGNSMDYWGQGTSVTVSS
VL: DIQMTQTTSSLSASLGDRVTIICRASQDINNYLNWYQKPDGTVKLLIYYTSRLHSGVPSRFSGSGSGSDYSLTISNLEQEDIATYFCQQANTLPPTFGAGTKLELR
Turning to B3, the “EC50 (read off the curve)” value in test [1] is around 0.04 µg/mL.

B4: circulating mouse DPP4 (from serum) (receptor)
chain: SRRTYSLADYLKSTFRVKSYSLWWVSDFEYLYKQENNILLLNAEHGNSSIFLENSTFESFGYHSVSPDRLFVLLEYNYVKQWRHSYTASYNIYDVNKRQLITEEKIPNNTQWITWSPEGHKLAYVWKNDIYVKVEPHLPSHRITSTGEENVIYNGITDWVYEEEVFGAYSALWWSPNNTFLAYAQFNDTGVPLIEYSFYSDESLQYPKTVWIPYPKAGAVNPTVKFFIVNIDSLSSSSSAAPIQIPAPASVARGDHYLCDVVWATEERISLQWLRRIQNYSVMAICDYDKINLTWNCPSEQQHVEMSTTGWVGRFRPAEPHFTSDGSSFYKIISDKDGYKHICHFPKDKKDCTFITKGAWEVISIEALTSDYLYYISNQYKEMPGGRNLYKIQLTDHTNVKCLSCDLNPERCQYYAVSFSKEAKYYQLGCWGPGLPLYTLHRSTDHKELRVLEDNSALDRMLQDVQMPSKKLDFIVLNETRFWYQMILPPHFDKSKKYPLLLDVYAGPCSQKADASFRLNWATYLASTENIIVASFDGRGSGYQGDKIMHAINRRLGTLEVEDQIEAARQFVKMGFVDSKRVAIWGWSYGGYVTSMVLGSGSGVFKCGIAVAPVSRWEYYDSVYTERYMGLPIPEDNLDHYRNSTVMSRAEHFKQVEYLLIHGTADDNVHFQQSAQISKALVDAGVDFQAMWYTDEDHGIASSTAHQHIYSHMSHFLQQCFSLH
For the molecule B4, the binding result in test [3] is reported as “no binding”.

B5: recombinant mouse DPP4 (mDPP4) (receptor)
chain: SKDEAAADSRRTYSLADYLKSTFRVKSYSLWWVSDFEYLYKQENNILLLNAEHGNSSIFLENSTFESFGYHSVSPDRLFVLLEYNYVKQWRHSYTASYNIYDVNKRQLITEEKIPNNTQWITWSPEGHKLAYVWKNDIYVKVEPHLPSHRITSTGEENVIYNGITDWVYEEEVFGAYSALWWSPNNTFLAYAQFNDTGVPLIEYSFYSDESLQYPKTVWIPYPKAGAVNPTVKFFIVNIDSLSSSSSAAPIQIPAPASVARGDHYLCDVVWATEERISLQWLRRIQNYSVMAICDYDKINLTWNCPSEQQHVEMSTTGWVGRFRPAEPHFTSDGSSFYKIISDKDGYKHICHFPKDKKDCTFITKGAWEVISIEALTSDYLYYISNQYKEMPGGRNLYKIQLTDHTNVKCLSCDLNPERCQYYAVSFSKEAKYYQLGCWGPGLPLYTLHRSTDHKELRVLEDNSALDRMLQDVQMPSKKLDFIVLNETRFWYQMILPPHFDKSKKYPLLLDVYAGPCSQKADASFRLNWATYLASTENIIVASFDGRGSGYQGDKIMHAINRRLGTLEVEDQIEAARQFVKMGFVDSKRVAIWGWSYGGYVTSMVLGSGSGVFKCGIAVAPVSRWEYYDSVYTERYMGLPIPEDNLDHYRNSTVMSRAEHFKQVEYLLIHGTADDNVHFQQSAQISKALVDAGVDFQAMWYTDEDHGIASSTAHQHIYSHMSHFLQQCFSLH
Regarding B5, the binding result in test [4] is recorded as “no binding (tested: about 30 ng/µL)”.
